Data from the supplement of paper PMC10724198.
± gives the standard deviation of the averaged measurements.

The sequences below were run on Saccharomyces cerevisiae (assay: protein stability index of tFT-peptide fusion (C-terminal peptide) (PSI (0-1 scale)); higher = more stable (slower turnover)). Conditions: genetic background: wild type; temperature: 30 C.
Method: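 Multiplexed protein stability (MPS) profiling in S. cerevisiae. Random 12-aa peptides (tFT-X12 library) are fused to the C-terminus of a sfGFP-mCherry tandem fluorescent timer, after mCherry and a GGGS linker. Cells are FACS-sorted into 8 mCherry/sfGFP bins and deep-sequenced. The protein stability index (PSI) is the read-weighted bin average, scaled from 0 (unstable) to 1 (stable). Only peptides with >10 reads are reported; cells were grown at 30 °C in SC-His with glucose.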
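Further: PSI is a weighted mean of sequencing reads over stability bins, variants kept only with over 10 reads, mCherry proximal and sfGFP distal, peptide attached via GGGS linker.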

Sequence	protein stability index
SSPAYPYWTRIF	0.777 ± 0.14
VWDQTKKKKIKK	0.704 ± 0.014
LVCLLFTNKVMH	0.599 ± 0.011
PSPHLHPPPLPP	0.641 ± 0.0047
GKTQLIKNIQNI	0.568 ± 0.023
LPILPQHQPTTD	0.674 ± 0.014
GSVYFDLLCVRP	0.729 ± 0.048
RPFSAPLCLLPS	0.7 ± 0.024
RPSPLPALASSL	0.65 ± 0.037
WIRTCMLIQGQT	0.736 ± 0.021
HVLFPLHPNRIP	0.6609 ± 0.0016
LPPLTSPSIVRG	0.749 ± 0.04
PTPLPSPCPAPP	0.703 ± 0.025
QTRDFRRASYAP	0.646 ± 0.019
ATSPPGLLAQPA	0.663 ± 0.0017
RKKDHKSIIQII	0.57779 ± 0.00015
SPHPTAPFVSTL	0.68 ± 0.087
SLTYSDGCTKSI	0.742 ± 0.043
YRLAPVSLTMSS	0.706 ± 0.045
SEVRLMSVTSHS	0.7417 ± 0.0038
LFTDIQAPSVKH	0.788 ± 0.18
KADLKTKNMCRL	0.765 ± 0.017
PRRPPPSPPVPP	0.532 ± 0.03
THSGRVRIVSFL	0.654 ± 0.12
SRPLPPPLPPPP	0.628 ± 0.025

Sequence	protein stability index
SPPGPLPPRRPF	0.725 ± 0.074
PRSLPSFHPPFH	0.658 ± 0.074
APLTVLTARSLF	0.763 ± 0.055
PLRSDSRAESLL	0.653 ± 0.051
LGDLVFGLSVWL	0.684 ± 0.035
VLLLSPPLRPCP	0.69 ± 0.024
VVECGERWWCLT	0.705 ± 0.032
ISWERIHEKKRK	0.784 ± 0.096
WCVCTFGGCDFP	0.641 ± 0.012
SLSPWRLPIGGR	0.734 ± 0.035
TILKLLSEELDK	0.613 ± 0.025
HLLGYSLRREFL	0.67 ± 0.054
GLDEGCRGGEEV	0.673 ± 0.0092
VRRVRGSKFFWR	0.609 ± 0.12
GGGREGEIGGGG	0.5705 ± 0.0013
AVPPQLAPPRPL	0.679 ± 0.037
GYRKREMRGELQ	0.678 ± 0.038
STCVRSRTCETP	0.675 ± 0.021
PIPSVFSPFLFA	0.641 ± 0.015
GYKLSIQGYNRK	0.675 ± 0.014
DWVDFFQSVIWI	0.761 ± 0.0079
LSRWGKTKGKKW	0.62 ± 0.014
LRVGMSSASVFQ	0.733 ± 0.03
GTRPSPPSRLVS	0.677 ± 0.031
LWSDPGQILVEL	0.717 ± 0.015

Sequence	protein stability index
PAHPSDIGAAAP	0.675 ± 0.042
LTIEFSARLGNA	0.663 ± 0.03
DRTDTNVKWRKK	0.696 ± 0.0077
SYLDWFLVLDMF	0.6706 ± 0.0047
PFPFLPSPIFPQ	0.749 ± 0.057
NSGKPWTLGRQE	0.701 ± 0.043
PSGSVLAEGRGP	0.678 ± 0.077
WCVRWGVVGPGL	0.634 ± 0.03
LLPLAPSPPPPH	0.71 ± 0.042
ALLSRFFPAFFF	0.604 ± 0.021
SPGPTLLSPPSP	0.691 ± 0.017
PRPLTPDPPRPL	0.693 ± 0.062
CSSARVLPLPVP	0.661 ± 0.041
DGAVRLGGGGLG	0.664 ± 0.05
HPPHPPPSPCPP	0.733 ± 0.034
FFSISPLLPLPF	0.714 ± 0.2
LSQISTQRPNQV	0.694 ± 0.06
VSPDVYGVCLRL	0.703 ± 0.081
VWLGGGVRLGRL	0.738 ± 0.059
GGGARWAGLGEG	0.687 ± 0.06
PPTPPPPSGLPP	0.678 ± 0.05
SNCRLCGFGYVE	0.6966 ± 0.0062
WLLGLRPTVSKE	0.756 ± 0.068
AEGCHIRVHWGV	0.7265 ± 0.0066
RDAPLGRRLRPV	0.678 ± 0.021

Sequence	protein stability index
YDTGSRASWIAF	0.714 ± 0.067
PPSPPSHTPPPS	0.695 ± 0.051
EGEGGKRGEGKR	0.624 ± 0.041
MIKAPGHKGTIN	0.684 ± 0.02
SPHPPPSRLPPP	0.709 ± 0.029
GIDKTNHKQEKN	0.691 ± 0.0085
PLIVSPCYSLVP	0.659 ± 0.014
SFLLGLCHFYGS	0.718 ± 0.04
CYHIAHPSAYVP	0.679 ± 0.041
KEKIGIQIKKKR	0.675 ± 0.047
VGHVVVRLWPHE	0.665 ± 0.013
LGLPSSLGPSDF	0.682 ± 0.011
CQGHFAAKTEKI	0.684 ± 0.019
DFWSEFILLCSV	0.6019 ± 0.0039
RCCLDLLIFPCS	0.735 ± 0.15
FVWSGVGGSGVG	0.679 ± 0.028
SFPHLARRLLSP	0.673 ± 0.06
GFLEAIMRFCGL	0.719 ± 0.0081
GTGMMGFFWIVA	0.571 ± 0.069
NNEKIEQRYSMK	0.711 ± 0.019
EEMMGGAETLHQ	0.649 ± 0.036
KQLKKKKQIRRK	0.728 ± 0.13
IKMKRMTKIKKK	0.745 ± 0.049
HVTRGMTHLTLF	0.635 ± 0.036
NKVRDKTQLKIE	0.78 ± 0.094

Sequence	protein stability index
SPAPPPPVTPPL	0.662 ± 0.013
YCGCSLSEMSWV	0.741 ± 0.037
CVKKERCDSCRV	0.715 ± 0.07
PVPERTSAEPPG	0.618 ± 0.038
PPPCPHLAPRLP	0.714 ± 0.071
EALELALTWHCV	0.7029 ± 0.0058
VMVTYCSEVQDR	0.693 ± 0.011
PPPPPPPPPTFL	0.708 ± 0.017
GGCGLGGVLEVG	0.676 ± 0.017
ITTVRGALLARY	0.666 ± 0.068
LPPLSLSPPLPP	0.689 ± 0.049
LCAETGVGPGLW	0.724 ± 0.016
YLGTETSLTSLK	0.786 ± 0.088
GFLVPVALCPVV	0.557 ± 0.03
RVWQGRDGTVMK	0.659 ± 0.019
QKGGGGEVGAEG	0.699 ± 0.066
LRCNAQSMICLT	0.633 ± 0.081
GGLVTSGGWRCA	0.71 ± 0.065
SFPPLRPSPPLL	0.667 ± 0.019
KKPHKTKGICYT	0.673 ± 0.012
LPAPPPPPPSPL	0.71 ± 0.074
ELWGGGFLLMLG	0.599 ± 0.021
HMHTSKTFSNGP	0.738 ± 0.093
GWSWGGVRTGSC	0.841 ± 0.092
PPPPLPPPPSPA	0.7911 ± 0.0045

Sequence	protein stability index
IENKKEKKIMIE	0.6652 ± 0.0037
TPPPHNRTKTTT	0.682 ± 0.072
PSRVRPLRLVLP	0.614 ± 0.033
GYGRLVSSQSFR	0.888 ± 0.16
NKKIYRTKIKKL	0.5917 ± 0.00069
VYGIAPPTRCFS	0.649 ± 0.024
VNRDYLGTNKSS	0.604 ± 0.017
NNRIRNIISIRK	0.743 ± 0.04
APPPPPFPPPCA	0.694 ± 0.049
GRIRGCSPFPLW	0.63 ± 0.094
RDSLGGRSMHGW	0.682 ± 0.029
GVGGAGIGVGMG	0.705 ± 0.032
YRRDVGAARVLP	0.67 ± 0.021
LLHEAFSSPLSS	0.7164 ± 0.0068
PASLPPSPPLLL	0.696 ± 0.039
STGAVGVSVCEG	0.64 ± 0.022
NCKLAVSPRPLR	0.692 ± 0.051
RGSVSCLQLIGC	0.651 ± 0.034
YGCVSPVAGFAN	0.7254 ± 0.0069
KKKRNSYMKGNR	0.681 ± 0.1
PSPPPSSAPYPS	0.609 ± 0.077
